This is an account of results in publication PMC12325586, “OFD1 inhibition induces BRCAness to create a therapeutic vulnerability to PARP inhibition in pancreatic cancer” (Nature Communications, 2025).

The target in assay [1] is T1, OFD1-Flag recombinant protein (UniProt O75665 1-1012).
T1 construct: OFD1; also called recombinant OFD1; source: HEK293S, purified (Flag agarose, eluted with Flag peptide)
T1 sequence (looked up): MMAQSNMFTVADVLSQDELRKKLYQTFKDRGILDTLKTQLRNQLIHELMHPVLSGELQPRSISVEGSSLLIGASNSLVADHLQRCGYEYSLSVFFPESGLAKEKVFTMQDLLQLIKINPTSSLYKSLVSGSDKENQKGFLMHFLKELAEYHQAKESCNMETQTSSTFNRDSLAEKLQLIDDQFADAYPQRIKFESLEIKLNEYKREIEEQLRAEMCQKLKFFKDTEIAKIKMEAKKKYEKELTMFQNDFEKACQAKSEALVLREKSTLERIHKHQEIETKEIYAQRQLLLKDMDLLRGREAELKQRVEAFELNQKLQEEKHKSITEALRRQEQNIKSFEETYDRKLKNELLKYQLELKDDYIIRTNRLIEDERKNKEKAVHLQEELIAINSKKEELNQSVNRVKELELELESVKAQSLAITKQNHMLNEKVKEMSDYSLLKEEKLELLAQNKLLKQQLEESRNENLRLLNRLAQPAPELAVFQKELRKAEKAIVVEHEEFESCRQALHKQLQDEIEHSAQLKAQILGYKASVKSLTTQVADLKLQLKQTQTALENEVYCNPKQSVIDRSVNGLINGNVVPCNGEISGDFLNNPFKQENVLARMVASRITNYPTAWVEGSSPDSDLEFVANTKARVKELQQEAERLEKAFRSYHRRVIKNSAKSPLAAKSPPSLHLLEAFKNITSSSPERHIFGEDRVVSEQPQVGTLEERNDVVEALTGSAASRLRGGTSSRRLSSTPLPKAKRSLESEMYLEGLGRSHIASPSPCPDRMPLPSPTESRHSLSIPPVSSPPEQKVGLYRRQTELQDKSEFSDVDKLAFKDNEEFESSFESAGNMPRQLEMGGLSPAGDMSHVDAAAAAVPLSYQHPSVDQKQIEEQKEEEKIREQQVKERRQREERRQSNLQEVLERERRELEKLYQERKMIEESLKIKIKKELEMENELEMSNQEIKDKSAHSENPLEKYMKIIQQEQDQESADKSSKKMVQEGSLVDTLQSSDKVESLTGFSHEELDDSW
The experiment in a line: pull-down; in vitro peptide competition: 5 μg purified OFD1-Flag and E2F4-Strep II-HA with HA agarose; candidate peptides at 200 μM, validation at 0, 12.5, 25, 50, 100 and 200 μM; overnight at 4 °C. The conditions noted are these: both partners purified.

The target of assay [2] is T1, OFD1-Flag recombinant protein. The experiment in a line: pull-down; 20 μg purified OFD1-Flag and E2F4-Strep II-HA with Flag agarose or HA agarose in TAP lysis buffer, 3-4 h at 4 °C. Particulars: both partners purified.

B1: E2F4 peptide spanning residues 283-302 (peptide)
peptide: ELSSLPLGPTTLDTRPLQSS
notes: the TAT-conjugated form was used on cells only; source: synthetic peptide
Regarding B1, in assay [1], the binding result is listed as “binds”.

B2: E2F4-Strep II-HA recombinant protein (natural protein)
chain: not shown
notes: E2F4; also called recombinant E2F4; source: HEK293S, purified (StrepTactin XT beads, then HA agarose, eluted with HA peptide)
As for B2, the binding result in assay [2] is reported as “binds”.
